In publication doi:10.1101/2024.01.09.574928:
Read-outs that look alike come from different tables or passages of the source.

What was measured:
[1] = biological target: T1, SCAF4-CID (human, UniProt O95104 1-139); experiment: SPR
T1 sequence: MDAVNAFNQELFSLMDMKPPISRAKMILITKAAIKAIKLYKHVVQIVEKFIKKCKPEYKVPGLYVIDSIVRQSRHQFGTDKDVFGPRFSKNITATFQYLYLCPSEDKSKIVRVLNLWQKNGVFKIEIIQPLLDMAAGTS

[2] = biological target: T2, SCAF8-CID (human, UniProt Q9UPN6 1-139); experiment: SPR
T2 sequence: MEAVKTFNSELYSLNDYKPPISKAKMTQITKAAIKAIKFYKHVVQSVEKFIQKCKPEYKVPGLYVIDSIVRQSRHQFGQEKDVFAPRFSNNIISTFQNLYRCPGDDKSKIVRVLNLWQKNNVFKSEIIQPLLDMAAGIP

[3] = biological target: T1, SCAF4-CID; experiment: competition FP
[4] = biological target: T2, SCAF8-CID; experiment: competition FP
[5] = biological target: T2, SCAF8-CID; experiment: SPR; remark: listed apart in the source
[6] = biological target: T2, SCAF8-CID; experiment: competition FP; remark: listed apart in the source
[7] = biological target: T1, SCAF4-CID; experiment: fluorescence polarization
[8] = biological target: T3, SCAF4-CID R71A (human, UniProt O95104 1-139, R71A); experiment: fluorescence polarization
T3 sequence: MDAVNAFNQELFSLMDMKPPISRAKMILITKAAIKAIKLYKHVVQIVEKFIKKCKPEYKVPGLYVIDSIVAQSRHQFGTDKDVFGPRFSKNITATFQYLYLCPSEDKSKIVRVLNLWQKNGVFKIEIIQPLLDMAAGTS

[9] = biological target: T4, SCAF4-CID R21A (human, UniProt O95104 1-139, R23A); experiment: fluorescence polarization
T4 sequence: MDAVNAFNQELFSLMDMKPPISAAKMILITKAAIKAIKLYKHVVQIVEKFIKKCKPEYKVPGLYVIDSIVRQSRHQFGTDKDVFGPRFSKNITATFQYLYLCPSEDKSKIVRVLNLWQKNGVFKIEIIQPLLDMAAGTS

[10] = biological target: T5, SCAF4-CID R112A (human, UniProt O95104 1-139, R112A); experiment: fluorescence polarization
T5 sequence: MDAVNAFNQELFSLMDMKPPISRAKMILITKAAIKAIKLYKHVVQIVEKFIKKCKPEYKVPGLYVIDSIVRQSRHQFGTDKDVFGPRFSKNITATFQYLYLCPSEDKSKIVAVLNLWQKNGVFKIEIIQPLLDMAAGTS

[11] = biological target: T1, SCAF4-CID; experiment: competition FP; remark: listed apart in the source
[12] = biological target: T6, WDR5 (UniProt P61964 22-334); experiment: competition FP
[13] = biological target: T6, WDR5; experiment: fluorescence polarization
[14] = biological target: WDR5 L240K (UniProt P61964 22-334, L240K); experiment: fluorescence polarization
[15] = biological target: T6, WDR5; experiment: SPR

Q: Which results are given for GGGGTGGGGAG (ssDNA) [SRiApt-1 (SCAF4_F3_11nt)]?
A: Kd [1]: 58.4 ± 5.8 nM; Kd [2]: 56.3 ± 7.42 nM; IC50 [3]: 832 ± 303 nM; IC50 [4]: 1500 ± 690 nM

Q: Which results are given for AGGTGGGT (ssDNA) [B2_8nt]?
A: Kd [1]: 297 ± 48.1 nM; IC50 [3]: 1280 ± 742 nM

Q: How did the Kd [1] turn out when TTAAAGGGGTGGGGAGTCAT (ssDNA) [SRiApt-3] was run?
A: Its Kd is 22.7 ± 1 nM.

Q: What about the Kd [5] of the same binder?
A: Its Kd is 69.9 ± 14 nM.

Q: And the IC50 [3]?
A: The IC50 was 285 ± 26.6 nM.

Q: And the IC50 [4]?
A: The IC50 was 291 ± 19.7 nM.

Q: How did the IC50 [3] turn out when TGGTGGGA (ssDNA) [D1_8nt] was run?
A: Its IC50 is 1270 ± 864 nM.

Q: With GTGGG (ssDNA) [SCAF4_LS (D2_5nt)] as the binder, how does the IC50 [6] read?
A: The IC50 was 1960 ± 240 nM.

Q: And the Kd [1]?
A: The Kd was 140 ± 40.1 nM.

Q: What about the Kd [5] of the same binder?
A: Its Kd is 76.4 ± 7.33 nM.

Q: And the Kd [7]?
A: The Kd was 189 ± 40.1 nM.

Q: What about the Kd [8] of the same binder?
A: Its Kd is 786 ± 491 nM.

Q: And the Kd [9]?
A: The Kd was 416 ± 39.5 nM.

Q: What about the Kd [10] of the same binder?
A: Its Kd is 672 ± 171 nM.

Q: And the IC50 [11]?
A: Its IC50 is 2750 ± 682 nM.

Q: Which IC50 [12] does the source give for GGACCGGACC (ssDNA) [bivalent WDR5 lead] here?
A: Its IC50 is 8500 ± 4250 nM.

Q: GGGTGGGA (ssDNA) [F1_8nt] was tested. Which Kd [1] did it give?
A: The Kd was 88.6 ± 15.1 nM.

Q: And the IC50 [3]?
A: The IC50 was 554 ± 106 nM.

Q: Which Kd [13] does the source give for GGGGGCTGGACCCCTCAACT (structured_DNA) [WMiApt-1] here?
A: The Kd was 797 ± 95.2 nM.

Q: Does GGGGGCTGGACCCCTCAACT (structured_DNA) [WMiApt-1] bind [14]?
A: Result: binds

Q: And the Kd [15]?
A: The Kd was 138 ± 86.7 nM.

Q: What about the IC50 [12] of the same binder?
A: Its IC50 is 431 ± 134 nM.

Q: Which results are given for CAGGTGGGTTC (ssDNA) [SRiApt-2 (F7_11nt_B)]?
A: Kd [1]: 73.8 ± 30.8 nM; Kd [5]: 90.5 ± 25.8 nM; IC50 [3]: 400 ± 143 nM; IC50 [4]: 2690 ± 1430 nM
